Reference: paper PMC10397247
Values belong to the binder of their own block, whether it stands above or below them.

What was measured:
4H1446-AA = molecular target: T1, 4H1446-AA; test: two-hybrid library CCmax;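 note: natural log of median RNA to DNA barcode read ratio; higher means stronger binding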
T1 chain: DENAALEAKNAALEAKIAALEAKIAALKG

4H1845-AA = molecular target: T2, 4H1845-AA; test: two-hybrid library CCmax; conditions: mean of both orientations;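 note: natural log of median RNA to DNA barcode read ratio; higher means stronger binding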
T2 chain: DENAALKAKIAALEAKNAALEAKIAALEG

4H2442-AA = molecular target: T3, 4H2442-AA; test: two-hybrid library CCmax; conditions: mean of both orientations;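 note: natural log of median RNA to DNA barcode read ratio; higher means stronger binding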
T3 chain: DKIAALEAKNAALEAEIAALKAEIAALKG

4H3112-AA = molecular target: T4, 4H3112-AA; test: two-hybrid library CCmax; conditions: mean of both orientations;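 note: natural log of median RNA to DNA barcode read ratio; higher means stronger binding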
T4 chain: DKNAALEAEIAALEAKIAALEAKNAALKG

4H3354-AA = molecular target: T5, 4H3354-AA; test: two-hybrid library CCmax; conditions: mean of both orientations;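 note: natural log of median RNA to DNA barcode read ratio; higher means stronger binding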
T5 chain: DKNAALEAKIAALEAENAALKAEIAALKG

4H3427-AA = molecular target: T6, 4H3427-AA; test: two-hybrid library CCmax; conditions: mean of both orientations;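 note: natural log of median RNA to DNA barcode read ratio; higher means stronger binding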
T6 chain: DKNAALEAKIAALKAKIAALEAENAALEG

4H3782-AA = molecular target: T7, 4H3782-AA; test: two-hybrid library CCmax; conditions: mean of both orientations
T7 chain: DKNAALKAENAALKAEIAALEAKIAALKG

4H3855-AA = molecular target: T8, 4H3855-AA; test: two-hybrid library CCmax; conditions: mean of both orientations
T8 chain: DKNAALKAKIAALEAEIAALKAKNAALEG

4H4001-AA = molecular target: T9, 4H4001-AA; test: two-hybrid library CCmax; conditions: mean of both orientations
T9 chain: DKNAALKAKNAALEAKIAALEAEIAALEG

4H568-AA = molecular target: T10, 4H568-AA; test: two-hybrid library CCmax; conditions: mean of both orientations
T10 chain: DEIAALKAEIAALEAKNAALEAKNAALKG

4H687-AA = molecular target: T11, 4H687-AA; test: two-hybrid library CCmax; conditions: mean of both orientations
T11 chain: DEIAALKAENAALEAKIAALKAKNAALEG

4H717-AA = molecular target: T12, 4H717-AA; test: two-hybrid library CCmax; conditions: mean of both orientations
T12 chain: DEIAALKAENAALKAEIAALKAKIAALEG

4H797-AA = molecular target: T13, 4H797-AA; test: two-hybrid library CCmax; conditions: mean of both orientations
T13 chain: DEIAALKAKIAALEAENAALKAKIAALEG

4H883-AA = molecular target: T14, 4H883-AA; test: two-hybrid library CCmax; conditions: mean of both orientations
T14 chain: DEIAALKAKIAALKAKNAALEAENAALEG

4H918-AA = molecular target: T15, 4H918-AA; test: two-hybrid library CCmax; conditions: mean of both orientations
T15 chain: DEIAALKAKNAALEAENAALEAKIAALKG

4H953-AA = molecular target: T16, 4H953-AA; test: two-hybrid library CCmax; conditions: mean of both orientations
T16 chain: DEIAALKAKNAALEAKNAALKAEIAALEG

4H967-AA = molecular target: T17, 4H967-AA; test: two-hybrid library CCmax; conditions: mean of both orientations
T17 chain: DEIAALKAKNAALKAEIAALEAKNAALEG

4H1072-bA = molecular target: T18, 4H1072-bA; test: two-hybrid library CCNG1
T18 chain: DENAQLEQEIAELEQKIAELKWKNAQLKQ

4H1193-bA = molecular target: T19, 4H1193-bA; test: two-hybrid library CCNG1
T19 chain: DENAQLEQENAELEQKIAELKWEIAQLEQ

4H1387-bA = molecular target: T20, 4H1387-bA; test: two-hybrid library CCNG1
T20 chain: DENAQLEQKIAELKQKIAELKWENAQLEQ

4H1406-bA = molecular target: T21, 4H1406-bA; test: two-hybrid library CCNG1
T21 chain: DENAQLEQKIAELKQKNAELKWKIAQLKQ

4H2568-bA = molecular target: T22, 4H2568-bA; test: two-hybrid library CCNG1
T22 chain: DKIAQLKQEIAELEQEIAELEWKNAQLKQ

4H2619-bA = molecular target: T23, 4H2619-bA; test: two-hybrid library CCNG1
T23 chain: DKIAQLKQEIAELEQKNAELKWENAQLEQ

4H2745-bA = molecular target: T24, 4H2745-bA; test: two-hybrid library CCNG1
T24 chain: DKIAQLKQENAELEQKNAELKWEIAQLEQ

4H344-bA = molecular target: T25, 4H344-bA; test: two-hybrid library CCNG1
T25 chain: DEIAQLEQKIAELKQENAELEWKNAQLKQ

4H3592-bA = molecular target: T26, 4H3592-bA; test: two-hybrid library CCNG1
T26 chain: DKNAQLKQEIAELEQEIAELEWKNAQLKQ

4H3601-bA = molecular target: T27, 4H3601-bA; test: two-hybrid library CCNG1
T27 chain: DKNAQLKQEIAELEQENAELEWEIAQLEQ

4H363-bA = molecular target: T28, 4H363-bA; test: two-hybrid library CCNG1
T28 chain: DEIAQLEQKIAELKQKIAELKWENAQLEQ

4H3907-bA = molecular target: T29, 4H3907-bA; test: two-hybrid library CCNG1
T29 chain: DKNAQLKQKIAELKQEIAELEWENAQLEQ

4H3961-bA = molecular target: T30, 4H3961-bA; test: two-hybrid library CCNG1
T30 chain: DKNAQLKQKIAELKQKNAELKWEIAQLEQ

4H4038-bA = molecular target: T31, 4H4038-bA; test: two-hybrid library CCNG1
T31 chain: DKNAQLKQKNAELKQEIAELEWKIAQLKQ

4H470-bA = molecular target: T32, 4H470-bA; test: two-hybrid library CCNG1
T32 chain: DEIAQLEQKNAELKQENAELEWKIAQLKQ

4H1328-bA = molecular target: T33, 4H1328-bA; test: two-hybrid library CCNG1
T33 chain: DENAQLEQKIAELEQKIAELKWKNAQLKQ

4H1369-bA = molecular target: T34, 4H1369-bA; test: two-hybrid library CCNG1
T34 chain: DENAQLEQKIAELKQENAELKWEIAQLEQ

4H1446-bA = molecular target: T35, 4H1446-bA; test: two-hybrid library CCNG1
T35 chain: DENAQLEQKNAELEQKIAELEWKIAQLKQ

4H1845-bA = molecular target: T36, 4H1845-bA; test: two-hybrid library CCNG1
T36 chain: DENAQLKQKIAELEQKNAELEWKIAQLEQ

4H2576-bA = molecular target: T37, 4H2576-bA; test: two-hybrid library CCNG1
T37 chain: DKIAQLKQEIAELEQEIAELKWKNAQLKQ

4H2610-bA = molecular target: T38, 4H2610-bA; test: two-hybrid library CCNG1
T38 chain: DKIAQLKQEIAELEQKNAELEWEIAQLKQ

4H2667-bA = molecular target: T39, 4H2667-bA; test: two-hybrid library CCNG1
T39 chain: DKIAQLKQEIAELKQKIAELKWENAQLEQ

4H2697-bA = molecular target: T40, 4H2697-bA; test: two-hybrid library CCNG1
T40 chain: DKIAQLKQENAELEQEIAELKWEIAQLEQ

4H3189-bA = molecular target: T41, 4H3189-bA; test: two-hybrid library CCNG1
T41 chain: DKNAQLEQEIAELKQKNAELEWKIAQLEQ

4H331-bA = molecular target: T42, 4H331-bA; test: two-hybrid library CCNG1
T42 chain: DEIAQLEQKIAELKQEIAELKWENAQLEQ

4H3606-bA = molecular target: T43, 4H3606-bA; test: two-hybrid library CCNG1
T43 chain: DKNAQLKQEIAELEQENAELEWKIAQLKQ

4H370-bA = molecular target: T44, 4H370-bA; test: two-hybrid library CCNG1
T44 chain: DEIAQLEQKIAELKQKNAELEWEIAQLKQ

4H3782-bA = molecular target: T45, 4H3782-bA; test: two-hybrid library CCNG1
T45 chain: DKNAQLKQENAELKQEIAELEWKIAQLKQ

4H3843-bA = molecular target: T46, 4H3843-bA; test: two-hybrid library CCNG1
T46 chain: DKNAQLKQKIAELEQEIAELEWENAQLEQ

4H4001-bA = molecular target: T47, 4H4001-bA; test: two-hybrid library CCNG1
T47 chain: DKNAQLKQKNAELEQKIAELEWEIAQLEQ

4H454-bH = molecular target: T48, 4H454-bH; test: two-hybrid library CCNG1
T48 chain: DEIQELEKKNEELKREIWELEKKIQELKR

4H462-bA = molecular target: T49, 4H462-bA; test: two-hybrid library CCNG1
T49 chain: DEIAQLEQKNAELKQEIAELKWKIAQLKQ

4H568-bA = molecular target: T50, 4H568-bA; test: two-hybrid library CCNG1
T50 chain: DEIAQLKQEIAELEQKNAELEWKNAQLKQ

4H607-bA = molecular target: T51, 4H607-bA; test: two-hybrid library CCNG1
T51 chain: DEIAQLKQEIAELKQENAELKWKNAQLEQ

4H687-bA = molecular target: T52, 4H687-bA; test: two-hybrid library CCNG1
T52 chain: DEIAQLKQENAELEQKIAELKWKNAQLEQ

4H72-bA = molecular target: T53, 4H72-bA; test: two-hybrid library CCNG1
T53 chain: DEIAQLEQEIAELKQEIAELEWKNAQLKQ

4H797-bA = molecular target: T54, 4H797-bA; test: two-hybrid library CCNG1
T54 chain: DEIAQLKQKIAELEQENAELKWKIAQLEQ

4H883-bA = molecular target: T55, 4H883-bA; test: two-hybrid library CCNG1
T55 chain: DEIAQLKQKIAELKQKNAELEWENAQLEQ

4H918-bA = molecular target: T56, 4H918-bA; test: two-hybrid library CCNG1
T56 chain: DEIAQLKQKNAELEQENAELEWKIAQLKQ

4H953-bA = molecular target: T57, 4H953-bA; test: two-hybrid library CCNG1
T57 chain: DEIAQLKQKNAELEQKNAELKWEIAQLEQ

4H967-bA = molecular target: T58, 4H967-bA; test: two-hybrid library CCNG1
T58 chain: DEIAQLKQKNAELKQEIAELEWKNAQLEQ

4H968-bN = molecular target: T59, 4H968-bN; test: two-hybrid library CCNG1
T59 chain: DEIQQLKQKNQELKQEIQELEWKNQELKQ

P9A = molecular target: T60, P9A; test: two-hybrid library CCNG1
T60 chain: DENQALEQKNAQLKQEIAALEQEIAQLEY

interaction score (4H1446-AA): 0.267
interaction score (4H1845-AA): -1.25
interaction score (4H2442-AA): -1.19
interaction score (4H3112-AA): -0.365
interaction score (4H3354-AA): -1.43
interaction score (4H3427-AA): -0.719
interaction score (4H3782-AA): 0.114
interaction score (4H3855-AA): -0.445
interaction score (4H4001-AA): 2.23
interaction score (4H568-AA): -1.7
interaction score (4H687-AA): -1.79
interaction score (4H717-AA): -1.15
interaction score (4H797-AA): -1.49
interaction score (4H883-AA): -1.54
interaction score (4H918-AA): -1.53
interaction score (4H953-AA): -0.751
interaction score (4H967-AA): -1.1
Binder: DENAALEAKNAALEAKIAALEAKIAALKG [4H1446-AA]

interaction score (4H1072-bA): 0.969
interaction score (4H1193-bA): 0.766
interaction score (4H1387-bA): 1.46
interaction score (4H1406-bA): 0.239
interaction score (4H2568-bA): 1.85
interaction score (4H2619-bA): 0.0458
interaction score (4H2745-bA): -0.205
interaction score (4H344-bA): -0.759
interaction score (4H3592-bA): 1.81
interaction score (4H3601-bA): 0.34
interaction score (4H363-bA): 1.21
interaction score (4H3907-bA): 0.997
interaction score (4H3961-bA): 1.34
interaction score (4H4038-bA): 1.71
interaction score (4H470-bA): -1.2
Binder: DENAQLEQEIAELEQKIAELKWKNAQLKQ [4H1072-bA]

interaction score (4H1193-bA): -1.02
interaction score (4H1328-bA): -0.132
interaction score (4H1369-bA): -1.1
interaction score (4H1387-bA): -0.852
interaction score (4H1406-bA): -0.0377
interaction score (4H1446-bA): -0.515
interaction score (4H1845-bA): -0.841
interaction score (4H2576-bA): 1.08
interaction score (4H2610-bA): -0.547
interaction score (4H2667-bA): -0.522
interaction score (4H2697-bA): -0.731
interaction score (4H3189-bA): -0.992
interaction score (4H331-bA): -1.28
interaction score (4H3592-bA): -0.214
interaction score (4H3601-bA): -0.992
interaction score (4H3606-bA): -0.984
interaction score (4H370-bA): -1.27
interaction score (4H3782-bA): 1.7
interaction score (4H3843-bA): 0.453
interaction score (4H3907-bA): -0.444
interaction score (4H4001-bA): 0.926
interaction score (4H4038-bA): 2.35
interaction score (4H454-bH): 0.453
interaction score (4H462-bA): 0.96
interaction score (4H568-bA): -1.33
interaction score (4H607-bA): -0.928
interaction score (4H687-bA): -0.956
interaction score (4H72-bA): -1.83
interaction score (4H797-bA): -1.03
interaction score (4H883-bA): -0.805
interaction score (4H918-bA): -1.33
interaction score (4H953-bA): -1.01
interaction score (4H967-bA): -0.577
interaction score (4H968-bN): 1.16
interaction score (P9A): 0.624
Binder: DENAQLEQENAELEQKIAELKWEIAQLEQ [4H1193-bA]
